From US20260103503A1

Tests used:
[1] = molecular target: NY-ESO-1 peptide on HLA-A*02:01 (human); assay: SPR as tabulated in Table 2 (BIAcore analysis); reference TCR; soluble, other
Tm NY-ESO (human) [2] = assay: flow cytometry, tetramer staining of transduced CD8+ T cells; nt control Q2 0.79
Tm NY-ESO (human) [3] = assay: flow cytometry, tetramer staining of transduced CD8+ T cells; nt control Q1 0.084
Tm NY-ESO (human) [4] = assay: flow cytometry, tetramer staining of transduced CD4+ T cells; nt control Q2 0.56
Tm NY-ESO (human) [5] = assay: flow cytometry, tetramer staining of transduced CD4+ T cells; nt control Q1 0.020

Row | Kd [1] [µM] | koff [1] [s⁻¹] | kon [1] [M⁻¹ s⁻¹] | Q2 (Tm NY-ESO+ CD8+), percent of cells (Tm NY-ESO (human) [2]) [%] | Q1 (Tm NY-ESO+ CD8-), percent of cells (Tm NY-ESO (human) [3]) [%] | Q2 (Tm NY-ESO+ CD4+), percent of cells (Tm NY-ESO (human) [4]) [%] | Q1 (Tm NY-ESO+ CD4-), percent of cells (Tm NY-ESO (human) [5]) [%] | Substance
1 | 14.2 | 0.12 | 17000 | – | – | – | – | 1G4
2 | – | – | – | 64.9 | 2.53 | 63.2 | 0.89 | 1G4LY TCR on transduced T cells
